Reference: publication PMC7523994, “Relationships between puroindoline A-prolamin interactions and wheat grain hardness” (PLoS ONE, 2020)

Assays:
puroindoline A [1] = biological target: T1, puroindoline A (Triticum aestivum, UniProt P33432 29-148); assay: SPR; α-gliadin, γ-gliadin or (PQQPY)8 covalently bound to a CM5 chip (EDC/NHS, 10 mM acetate pH 4.7); PINA flowed over at 10 μL/min, 25°C, 10 mM Hepes pH 7.4, 150 mM NaCl, 3.4 mM EDTA, 0.005% P20; global kinetic fit, 1:1 Langmuir model; conditions: both partners purified
T1 construct: puroindoline A (PINA) of Triticum aestivum cv; Recital, purified from grain; about 13 kDa, five disulfide bonds, tryptophan-rich domain; The Pina allele of cv; The preparation probably holds several C-terminally processed forms; also called PINA
T1 sequence (looked up): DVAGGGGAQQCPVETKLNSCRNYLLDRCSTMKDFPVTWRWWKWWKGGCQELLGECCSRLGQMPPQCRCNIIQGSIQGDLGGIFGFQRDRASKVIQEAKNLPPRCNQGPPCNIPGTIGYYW

puroindoline A [2] = biological target: T1, puroindoline A; assay: SPR; (PQQPY)8 covalently bound to a CM5 chip; PINA 2 to 20 μM flowed over, 25°C, Hepes buffer pH 7.4; steady-state fit, 1:1 Langmuir model; conditions: both partners purified

B1: recombinant polypeptide (PQQPY)8 (peptide)
chain: PQQPYPQQPYPQQPYPQQPYPQQPYPQQPYPQQPYPQQPY
notes: written out from '(PQQPY)8'; measured mass 4924.5 Da, theoretical 4924.3 Da; The fusion is printed as thioredoxin-DP-(PQQPY)8 and was cut in formic acid; The printed theoretical mass of 4924.3 Da fits 40 residues (eight repeats, monoisotopic) without a further proline; also called (Pro-Gln-Gln-Pro-Tyr)8; spr8; source: BLR strain, pETb32 vector, thioredoxin fusion; not shown: thioredoxin, …
Kd (puroindoline A [1]): 0.29 ± 0.005 µM | koff (puroindoline A [1]): 0.0015 ± 0.1 s⁻¹ | kon (puroindoline A [1]): 5000 ± 0.03 M⁻¹ s⁻¹ | Kd (puroindoline A [2]): 7.22 ± 2.8 µM
